Positions count from the first letter of the chain named. Names may count otherwise.
B1: CE115HA000 H35L one-arm antibody (antibody, human IgG1, kappa, L234A L235A, N297A, name in Kabat numbering)
heavy: QVQLVESGGGVVQPGRSLRLSCAASGFTFSNAWMLWVRQAPGKGLEWVAQIKAKSNNYATYYAESVKGRFTISRDDSKNSLYLQMNSLKTEDTAVYYCRYVHYGAYYGVDAWGQGTTVTVSSASTKGPSVFPLAPSSKSTSGGTAALGCLVKDYFPEPVTVSWNSGALTSGVHTFPAVLQSSGLYSLSSVVTVPSSSLGTQTYICNVNHKPSNTKVDKKVEPKSCDKTHTCPPCPAPEAAGGPSVFLFPPKPKDTLMISRTPEVTCVVVDVSHEDPEVKFNWYVDGVEVHNAKTKPREEQYASTYRVVSVLTVLHQDWLNGKEYKCKVSNKALPAPIEKTISKAKGQPREPQVYTLPPSRCELTKNQVSLSCAVKGFYPSDIAVEWESNGQPENNYKTTPPVLDSDGSFFLVSKLTVDKSRWQQGNVFSCSVMHEALHNHYTQKSLSLSPDYKDDDDK
chain: EPKSSDKTHTCPPCPAPELLGGPSVFLFPPKPKDTLMISRTPEVTCVVVDVSHEDPEVKFNWYVDGVEVHNAKTKPREEQYNSTYRVVSVLTVLHQDWLNGKEYKCKVSNKALPAPIEKTISKAKGQPREPQVCTLPPSRDELTKNQVSLWCLVKGFYPSDIAVEWESNGQPENNYKTTPPVLDSDGSFFLYSKLTVDKSRWQQGNVFSCSVMHEALHNRYTQKSLSLSP
light: DIVMTQSPLSLPVTPGEPASISCRSSQSLVHSNRNTYLHWYQQKPGQAPRLLIYKVSNRFSGVPDRFSGSGSGTDFTLKISRVEAEDVGVYYCGQGTQVPYTFGQGTKLEIKRTVAAPSVFIFPPSDEQLKSGTASVVCLLNNFYPREAKVQWKVDNALQSGNSQESVTEQDSKDSTYSLSSTLTLSKADYEKHKVYACEVTHQGLSSPVTKSFNRGEC
B2: CE115HA000 H35S one-arm antibody (antibody, human IgG1, kappa, L234A L235A, N297A, name in Kabat numbering)
heavy: B1 heavy with L35S
chain: B1 chain
light: B1 light
B3: CE115HA000 H96G one-arm antibody (antibody, human IgG1, kappa, L234A L235A, N297A, name in Kabat numbering)
heavy: B1 heavy with L35H, H102G
chain: B1 chain
light: B1 light
B4: CE115HA000 K52S one-arm antibody (antibody, human IgG1, kappa, L234A L235A, N297A, name in Kabat numbering)
heavy: B1 heavy with L35H, K52S
chain: B1 chain
light: B1 light
B5: CE115HA000 K43Q one-arm antibody (antibody, human IgG1, kappa, L234A L235A, N297A, name in Kabat numbering)
heavy: B1 heavy with L35H, K43Q
chain: B1 chain
light: B1 light
B6: CE115HA000 H96Y one-arm antibody (antibody, human IgG1, kappa, L234A L235A, N297A, name in Kabat numbering)
heavy: B1 heavy with L35H, H102Y
chain: B1 chain
light: B1 light
B7: CE115HA000 K52bA one-arm antibody (antibody, human IgG1, kappa, L234A L235A, N297A, name in Kabat numbering)
heavy: B1 heavy with L35H, K54A
chain: B1 chain
light: B1 light
B8: CE115HA000 I51D one-arm antibody (antibody, human IgG1, kappa, L234A L235A, N297A, name in Kabat numbering)
heavy: B1 heavy with L35H, I51D
chain: B1 chain
light: B1 light
B9: CE115HA000 H96L one-arm antibody (antibody, human IgG1, kappa, L234A L235A, N297A, name in Kabat numbering)
heavy: B1 heavy with L35H, H102L
chain: B1 chain
light: B1 light
B10: CE115HA000 H35M one-arm antibody (antibody, human IgG1, kappa, L234A L235A, N297A, name in Kabat numbering)
heavy: B1 heavy with L35M
chain: B1 chain
light: B1 light
B11: CE115HA000 K52R one-arm antibody (antibody, human IgG1, kappa, L234A L235A, N297A, name in Kabat numbering)
heavy: B1 heavy with L35H, K52R
chain: B1 chain
light: B1 light
B12: CE115HA000 H96Q one-arm antibody (antibody, human IgG1, kappa, L234A L235A, N297A, name in Kabat numbering)
heavy: B1 heavy with L35H, H102Q
chain: B1 chain
light: B1 light
B13: CE115HA000 H35W one-arm antibody (antibody, human IgG1, kappa, L234A L235A, N297A, name in Kabat numbering)
heavy: B1 heavy with L35W
chain: B1 chain
light: B1 light
B14: CE115HA000 K43E one-arm antibody (antibody, human IgG1, kappa, L234A L235A, N297A, name in Kabat numbering)
heavy: B1 heavy with L35H, K43E
chain: B1 chain
light: B1 light
B15: CE115HA000 K52D one-arm antibody (antibody, human IgG1, kappa, L234A L235A, N297A, name in Kabat numbering)
heavy: B1 heavy with L35H, K52D
chain: B1 chain
light: B1 light
B16: CE115HA000 H96R one-arm antibody (antibody, human IgG1, kappa, L234A L235A, N297A, name in Kabat numbering)
heavy: B1 heavy with L35H, H102R
chain: B1 chain
light: B1 light
B17: CE115HA000 H96S one-arm antibody (antibody, human IgG1, kappa, L234A L235A, N297A, name in Kabat numbering)
heavy: B1 heavy with L35H, H102S
chain: B1 chain
light: B1 light
B18: CE115HA000 K52W one-arm antibody (antibody, human IgG1, kappa, L234A L235A, N297A, name in Kabat numbering)
heavy: B1 heavy with L35H, K52W
chain: B1 chain
light: B1 light
B19: CE115HA000 K52H one-arm antibody (antibody, human IgG1, kappa, L234A L235A, N297A, name in Kabat numbering)
heavy: B1 heavy with L35H, K52H
chain: B1 chain
light: B1 light
B20: CE115HA000 K52F one-arm antibody (antibody, human IgG1, kappa, L234A L235A, N297A, name in Kabat numbering)
heavy: B1 heavy with L35H, K52F
chain: B1 chain
light: B1 light
B21: CE115HA000 H35R one-arm antibody (antibody, human IgG1, kappa, L234A L235A, N297A, name in Kabat numbering)
heavy: B1 heavy with L35R
chain: B1 chain
light: B1 light
B22: CE115HA000 H96P one-arm antibody (antibody, human IgG1, kappa, L234A L235A, N297A, name in Kabat numbering)
heavy: B1 heavy with L35H, H102P
chain: B1 chain
light: B1 light
B23: CE115HA000 H35T one-arm antibody (antibody, human IgG1, kappa, L234A L235A, N297A, name in Kabat numbering)
heavy: B1 heavy with L35T
chain: B1 chain
light: B1 light
B24: CE115HA000 H35Q one-arm antibody (antibody, human IgG1, kappa, L234A L235A, N297A, name in Kabat numbering)
heavy: B1 heavy with L35Q
chain: B1 chain
light: B1 light
B25: CE115HA000 K52Y one-arm antibody (antibody, human IgG1, kappa, L234A L235A, N297A, name in Kabat numbering)
heavy: B1 heavy with L35H, K52Y
chain: B1 chain
light: B1 light
B26: CE115HA000 H35Y one-arm antibody (antibody, human IgG1, kappa, L234A L235A, N297A, name in Kabat numbering)
heavy: B1 heavy with L35Y
chain: B1 chain
light: B1 light
B27: CE115HA000 K52E one-arm antibody (antibody, human IgG1, kappa, L234A L235A, N297A, name in Kabat numbering)
heavy: B1 heavy with L35H, K52E
chain: B1 chain
light: B1 light
B28: CE115HA000 H35N one-arm antibody (antibody, human IgG1, kappa, L234A L235A, N297A, name in Kabat numbering)
heavy: B1 heavy with L35N
chain: B1 chain
light: B1 light
B29: CE115HA000 K52I one-arm antibody (antibody, human IgG1, kappa, L234A L235A, N297A, name in Kabat numbering)
heavy: B1 heavy with L35H, K52I
chain: B1 chain
light: B1 light
B30: CE115HA000 H35V one-arm antibody (antibody, human IgG1, kappa, L234A L235A, N297A, name in Kabat numbering)
heavy: B1 heavy with L35V
chain: B1 chain
light: B1 light
B31: CE115HA000 I51E one-arm antibody (antibody, human IgG1, kappa, L234A L235A, N297A, name in Kabat numbering)
heavy: B1 heavy with L35H, I51E
chain: B1 chain
light: B1 light
B32: CE115HA000 K52N one-arm antibody (antibody, human IgG1, kappa, L234A L235A, N297A, name in Kabat numbering)
heavy: B1 heavy with L35H, K52N
chain: B1 chain
light: B1 light
B33: CE115HA000 H96K one-arm antibody (antibody, human IgG1, kappa, L234A L235A, N297A, name in Kabat numbering)
heavy: B1 heavy with L35H, H102K
chain: B1 chain
light: B1 light

target: T1, CD3 epsilon homodimer protein (UniProt P07766 23-126); assay: SPR (Biacore T200), CD3 epsilon homodimer on CM4 chip, one-arm antibody as analyte, 25 C;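 note: homodimer attached to the sensor surface via amine coupling, HBS-EP+ used as running buffer during binding runs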
T1 construct: immobilized on Sensor chip CM4 by amine coupling; also called CD3 (CD3 epsilon)
T1 sequence (P07766 23-126): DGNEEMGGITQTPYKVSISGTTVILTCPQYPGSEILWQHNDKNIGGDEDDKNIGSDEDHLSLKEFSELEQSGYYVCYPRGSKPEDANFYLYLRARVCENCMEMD
Procedure: An appropriate amount of CD3 epsilon homodimer protein was immobilized onto Sensor chip CM4 (GE Healthcare Japan Corp.) by the amine coupling method. Then, the antibody having an appropriate concentration was injected thereto as an analyte and allowed to interact with the CD3 epsilon homodimer protein on the sensor chip. Then, the sensor chip was regenerated by the injection of 10 mmol/L glycine-HCl (pH 1.5). The assay was conducted at 25 degrees C., and HBS-EP+(GE Healthcare Japan Corp.) was used as a running buffer. […] Each parameter was calculated using Biacore T200 Evaluation Software (GE Healthcare Japan Corp.).

Row | ratio of amounts bound (altered form / CE115HA000) | Binder
1 | 0.11 | B1
2 | 0.23 | B2
3 | 0.43 | B3
4 | 0.28 | B4
5 | 0.99 | B5
6 | 0.17 | B6
7 | 0.67 | B7
8 | 0.29 | B8
9 | 0.14 | B9
10 | 0.29 | B10
11 | 0.91 | B11
12 | 0.42 | B12
13 | 0.22 | B13
14 | 0.9 | B14
15 | 0.25 | B15
16 | 0.46 | B16
17 | 0.44 | B17

Row | ratio of amounts bound (altered form / CE115HA000) | Binder
18 | 0.22 | B18
19 | 0.22 | B19
20 | 0.17 | B20
21 | 0.14 | B21
22 | 0.12 | B22
23 | 0.26 | B23
24 | 0.13 | B24
25 | 0.18 | B25
26 | 0.16 | B26
27 | 0.26 | B27
28 | 0.35 | B28
29 | 0.33 | B29
30 | 0.22 | B30
31 | 0.55 | B31
32 | 0.34 | B32
33 | 0.38 | B33

Source: US20210388087A1 (Chugai, published 2021)
